Data published in the supplement of paper PMC9170038.

Test system: MS2 coat protein
Test: apparent KD of MS2 coat protein; designed switch direction (-1 OFF switch, 1 ON switch): -1; higher = weaker reporter binding
Method in brief: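 Designed RNA switches sharing common flanks were transcribed on Illumina chips by stalled E. coli RNA polymerase. They were titrated with SNAP-549-labelled MS2 coat protein, from 0.7 or 1.5 nM doubling to 3 µM, in Tris-HCl pH 7.5 buffer with KCl, MgCl2, BSA, DTT, tRNA and Tween-20. Titrations ran without input, with 200 uM small-molecule ligand, or with an oligonucleotide input. The apparent KD of each design is the median over its clusters, after curve-fitting of normalised cluster fluorescence.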

[1] = input ligand: microRNA oligo, concentration not stated
[2] = Eterna round: R95, input ligand: microRNA oligo, concentration not stated
[3] = Eterna round: R95, input ligand: FMN 200 uM
[4] = Eterna round: R95, input ligand: none

Sequence	apparent KD of MS2 coat protein (input ligand: FMN 200 uM)	apparent KD of MS2 coat protein [1]	apparent KD of MS2 coat protein (input ligand: none)	apparent KD of MS2 coat protein [2]	apparent KD of MS2 coat protein [3]	apparent KD of MS2 coat protein [4]
GUGUACGGAGGAUAUAUAUGGGCAGCAUACGCUGCAGCUUCACAUGAGGAUCACCCAUGUAGAAGGCUGUACAC [Mat - Exclusion 2 - Mod of Hyphema - D100] (Eterna round: R96, puzzle: Exclusion 2)	223 nM	18.5 nM	24.8 nM			
GUGUACGGAGGAUAUAUAUGGGCAGCAUACGCUGCAGCUUCACAUGAGGAUCACCCAUGUAGAAGGCUGUACAC [Mat - Exclusion 2 - Mod of Hyphema - D100] (puzzle: Exclusion 2)				22 nM		
GUGUAGACAGGAUAUGCUUUGAGCGUAUGAGAGUAGGCUCGACAUGAGGAUCACCCAUGUAGAAGGGUCUACAC [LRO-Excl2-03] (puzzle: Exclusion 2)				10.1 nM		
GUGUAGAUAGGAUAUGCAAGAGUCUAGCGAAGCUAGAUUCUACAUGAGGAUCACCCAUGUAGAAGGGUCUACAC [Fiskers Ex 2 - 29] (puzzle: Exclusion 2)				17.3 nM		
GUGUAGUCAGGAUAUACAUAGGAAGAGAAGAGAAGAGAAGCACAUGAGGAUCACCCAUGUAGAAGGGACAGUGU [Excluse me!! 4 - Jieux - Exclusion 2] (Eterna round: R96, puzzle: Exclusion 2)		40.1 nM				
GUGUAGUCAGGAUAUACAUAGGAAGAGAAGAGAAGAGAAGCACAUGAGGAUCACCCAUGUAGAAGGGACAGUGU [Excluse me!! 4 - Jieux - Exclusion 2] (puzzle: Exclusion 2)				61.4 nM	85.7 nM	61 nM
GUGUAGUCAGGAUAUACAUGAGGAUCACCCAUGUGAAUAAGAUAGAAUAAGAUAAAGUGUAGAAGGGACAGUGU [Excluse me!!! 4 - Jieux - Exclusion 3] (puzzle: Exclusion 3)				34.1 nM	33.8 nM	35.9 nM
GUGUCUCGUGUAGGAUAUGCGCGAGGUCUUUGUGCAGAAGGACAUGAGGAUCACCCAUGUAUUCCGCGGCGCGGGCAUGUGUCC [-29/-27 Kcal and A 18%] (Eterna round: R96, puzzle: Exclusion NG 1)	249 nM	46.7 nM	52.5 nM			
GUGUGCUGAGGAUAUACAGAGGAAGAUAAGAUAAGAUAAUGACAUGAGGAUCACCCAUGUAGAAGGCAGAGUGU [Excluse me!! 15 - Jieux - Exclusion 2] (puzzle: Exclusion 2)				30.5 nM		
GUGUUACAAGUGAGGAUAUCUGCUUUGGUAGAAGCGGAGAAGGCACAUGAGGAUCACCCAUGUCAGGAGUCCAU [Eternabot (L2) Solution 20] (Eterna round: R97, puzzle: Brourd's mod of Exclusion 4)	393 nM		59.3 nM			
GUGUUGCGAGGAUAUAUAAGGGUAUGUUCUUAGGAUAUGGAACAUGAGGAUCACCCAUGUAGAAGGUGCAUAAC [JR_Ex2_Sub046] (Eterna round: R97, puzzle: Exclusion 2)	459 nM		761 nM			
GUUAGACAUGAGGAUCACCCAUGUGAGGAUAUGAUGUGAAUAAAUAAUUAAUUAAGUAUCAGAAGGCACAUAUG [Mat - Mod of Hyphema D32] (puzzle: Exclusion 1)				119 nM		
GUUAGUUAAGGAUAUACUGGGAGCUGCGGCGUCUCGCCGCAACAUGAGGAUCACCCAUGUAGAAGGUGACCGUU [JL ViennaUCT Enbibi mod 6] (puzzle: Exclusion 2)				283 nM		
GUUGUGUGAGGAUAUGCCUGGCCGUGAGGCCAGAUUGGGUGGCAGAAGGUACAUGAGGAUCACCCAUGUACGGG [salish99_ex4_4_005] (Eterna round: R97, puzzle: Exclusion 4)	47.7 nM		47.5 nM			
GUUGUGUGAGGAUAUGCCUGGCCGUGAGGCCGGAUUGGGUGGCAGAAGGUACAUGAGGAUCACCCAUGUACGGG [salish99_ex4_4_007] (Eterna round: R97, puzzle: Exclusion 4)	45.4 nM		30.9 nM			
GUUGUUACUGAGGAUAUUAUUUUAUUCGAUUGAUAAGAAGGCAGUACAUGAGGAUCACCCAUGUGGGUAGCUAG [Polaris20] (Eterna round: R97, puzzle: Exclusion 6)	434 nM		95.5 nM			

Sequence	apparent KD of MS2 coat protein (input ligand: FMN 200 uM)	apparent KD of MS2 coat protein [1]	apparent KD of MS2 coat protein (input ligand: none)	apparent KD of MS2 coat protein [2]	apparent KD of MS2 coat protein [3]	apparent KD of MS2 coat protein [4]
GUUGUUCGGUAGGAUAUGAAACAGCAGAGAUUGUCAGAAGGGCCGACAUGAGGAUCACCCAUGUGUGCGAAAGC [Eternabot (L1) Solution 26] (Eterna round: R97, puzzle: Exclusion 6)	35.1 nM		50 nM			
GUUGUUUAUGUAGGAUAUGCCUGGCGUGCCUUCGCAGAAGGACAUGAGGAUCACCCAUGUAUUGCGGUCUGCGUUCAGAUCGCU [salish99_ExNG1_r4_023] (Eterna round: R96, puzzle: Exclusion NG 1)	49.8 nM	38.8 nM	52.7 nM			
GUUUCACAUGAGGAUCACCCAUGUGAGGAUAUGUUAUUAAUGGCGAUAGUUAUUGGUGGCAGAAGGCGCGUGAU [JR_Exc1_Sub010] (Eterna round: R97, puzzle: Exclusion 1)	115 nM		50.2 nM			
GUUUCGAGACGGAGAUCCGACAUGAGGAUCACCCAUGUCUCGUAAGCUUUUUGCUCGUCUUAUACUCCUCUGUUCUC [Elimod 49 - Jieux - Sensor, turn-off variant 1] (Eterna round: R97, puzzle: Sensor, turn-off variant 1)	26 nM		27.2 nM			
GUUUUCAGACGGAGAUCCUACAUGAGGAUCACCCAUGUCUCUCUUGUUAAUUGCUCGUCUUUUCCUCCUCUGUUCUC [Elimod 34 - Jieux - Sensor, turn-off variant 1] (Eterna round: R97, puzzle: Sensor, turn-off variant 1)	545 nM		605 nM			
UAAAAGCGAGGAUAUACAUGAGGAUCACCCAUGUGAGGCGAAAAGCCUCGGGCCAUCAGUAGAAGGUGCAAAAC [Arcecela] (puzzle: Exclusion 3)				68.9 nM	79 nM	112 nM
UAAAAUAGUGUGAGGAUAUGCUGGUCCUUGGAUCAGCAGAAGGCACAUGAGGAUCACCCAUGUAGUUAAUAAUA [Mat - Exclusion 4 - JL Mod - D25] (puzzle: Brourd's mod of Exclusion 4)				36.8 nM	196 nM	34.4 nM
UAAAAUUCGCGAGGAUAUGCGACCUAAUGGGAGGAUUGUCACAUGAGGAUCACCCAUGUCAGUCAGCAGAAGGCGCACCUGGUU [Anedmaon] (Eterna round: R96, puzzle: Exclusion NG 2)	628 nM	116 nM	99.6 nM			
UAAAGCUUUGAGAUCCUUAACAUGAGGAUCACCCAUGUUCGUCUUAUGAUGGUCUGAUCCCUGAGGAUCGGACCGUU [Mat - Sensor v3 - turn-off var 1 - JL Mod - D5] (puzzle: Sensor v3, turn-off variant 1)				26.6 nM	269 nM	252 nM
UAAAUGUGAGGAUAUCAGGUGUGCUAGCAUACUGGUACAUCUGAGAAGGCACAUGAGGAUCACCCAUGUUCCUU [Mat - Exclusion 4 - Mod of JL - D52] (puzzle: Exclusion 4)				16.7 nM		
UAAAUGUGAGGAUAUUCGUAGAACUCGGAGACGAGUUUUACGGAGAAGGCACAUGAGGAUCACCCAUGUUCCUU [Mat - Exclusion 4 - JL Mod - D2] (Eterna round: R97, puzzle: Exclusion 4)	169 nM		28.6 nM			
UAACAAAUGGUCAGGAUAUCACUCCCGGCCCAGAGUGAGAAGGGACAUGAGGAUCACCCAUGUAUGAUUCUCAC [jl-ex4-4.54 ViennaUCT mod] (Eterna round: R97, puzzle: Brourd's mod of Exclusion 4)	19.7 nM		15.1 nM			
UAACGGGCUUCUUCGUUUACAACAUGAGGAUCACCCAUGUUCGAGGAUAUCCACUAAGCUCUUCAGGAGAAGGCGAACAUAAUG [Rizaoran] (Eterna round: R96, puzzle: Exclusion NG 3)	37.2 nM	15.1 nM	14.6 nM			
UAAGAUUACCGAGGAUAUGCUGGUUUCUAUUAAGCAGAAGGCGGACUCAACAUGAGGAUCACCCAUGUAAGAAGGGUAUUAGAU [Ex NG1 #9] (Eterna round: R96, puzzle: Exclusion NG 1)	89.8 nM	82.1 nM	94.8 nM			
UAAGAUUACCGAGGAUAUGCUGGUUUCUCUCAAGCAGAAGGCGGACUCAACAUGAGGAUCACCCAUGUAAGACGGGUACUAGAU [Ex NG1 #11] (Eterna round: R96, puzzle: Exclusion NG 1)	133 nM	76.6 nM	574 nM			
